Test results as given in PMC11662656, “Intrinsically disordered RNA-binding motifs cooperate to catalyze RNA folding and drive phase separation”.

What was measured:
MBP-Loc1p [1] = biological target: T1, MBP-Loc1p (Saccharomyces cerevisiae, UniProt P43586 1-204); test: EMSA; 100 nM DNA; affinity similar to ssRNA; EMSA: 20 mM HEPES pH 7.8, 200 mM NaCl, 2 mM MgCl2, 2 mM DTT, 4% glycerol, 25 C, 5 nM RNA, 100 ug/ml tRNA (omitted in competition); NMR: 20 mM Na phosphate pH 7.
MBP-Loc1p [2] = biological target: T2, MBP-Loc1p (Saccharomyces cerevisiae, UniProt P43586 1-204); test: competition; vs labeled ASH1 E3; 10-500x; EMSA: 20 mM HEPES pH 7.8, 200 mM NaCl, 2 mM MgCl2, 2 mM DTT, 4% glycerol, 25 C, 5 nM RNA, 100 ug/ml tRNA (omitted in competition); NMR: 20 mM Na phosphate pH 7.4, 50 mM NaCl, 278 K; details: protein: recombinant; tags: MBP; hairpin
Loc1p [3] = biological target: Loc1p (Saccharomyces cerevisiae, UniProt P43586 1-204); test: EMSA; nanomolar range; 100 ug/ml yeast tRNA; EMSA: 20 mM HEPES pH 7.8, 200 mM NaCl, 2 mM MgCl2, 2 mM DTT, 4% glycerol, 25 C, 5 nM RNA, 100 ug/ml tRNA (omitted in competition); NMR: 20 mM Na phosphate pH 7.4, 50 mM NaCl, 278 K; details: protein: recombinant; hairpin
Loc1p [4] = biological target: Loc1p (Saccharomyces cerevisiae, UniProt P43586 1-204); test: EMSA; nanomolar range; 100 ug/ml yeast tRNA; EMSA: 20 mM HEPES pH 7.8, 200 mM NaCl, 2 mM MgCl2, 2 mM DTT, 4% glycerol, 25 C, 5 nM RNA, 100 ug/ml tRNA (omitted in competition); NMR: 20 mM Na phosphate pH 7.
MBP-Loc1p [5] = biological target: T1, MBP-Loc1p; test: competition; vs labeled TAR-57; 10-500x; EMSA: 20 mM HEPES pH 7.8, 200 mM NaCl, 2 mM MgCl2, 2 mM DTT, 4% glycerol, 25 C, 5 nM RNA, 100 ug/ml tRNA (omitted in competition); NMR: 20 mM Na phosphate pH 7.
Loc1p (3-15) = biological target: T3, Loc1p (3-15) (Saccharomyces cerevisiae, UniProt P43586 3-15); test: NMR (1H-15N HSQC titration); range over peptide signals; EMSA: 20 mM HEPES pH 7.8, 200 mM NaCl, 2 mM MgCl2, 2 mM DTT, 4% glycerol, 25 C, 5 nM RNA, 100 ug/ml tRNA (omitted in competition); NMR: 20 mM Na phosphate pH 7.4, 50 mM NaCl, 278 K; details: protein: recombinant; tags: GST removed by thrombin (15N,13C sample); hairpin, 11 bp stem, GAAA loop
T3 chain: PKKPSKRQNLRRE

Loc1p array peptide B8 = Loc1p array peptide B8 (Saccharomyces cerevisiae, UniProt P43586 82-101); test: peptide array; EMSA: 20 mM HEPES pH 7.8, 200 mM NaCl, 2 mM MgCl2, 2 mM DTT, 4% glycerol, 25 C, 5 nM RNA, 100 ug/ml tRNA (omitted in competition); NMR: 20 mM Na phosphate pH 7.4, 50 mM NaCl, 278 K; details: tags: array-immobilized; label: radioactive
Loc1p array peptide A9 = biological target: T4, Loc1p array peptide A9 (Saccharomyces cerevisiae, UniProt P43586 25-44); test: as above; details: tags: array-immobilized; label: radioactive
T4 chain: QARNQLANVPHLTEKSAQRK

Loc1p array peptide A7 = biological target: T5, Loc1p array peptide A7 (Saccharomyces cerevisiae, UniProt P43586 19-38); test: as above; details: tags: array-immobilized; label: radioactive
T5 chain: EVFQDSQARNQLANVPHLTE

Loc1p array peptide A10 = biological target: T6, Loc1p array peptide A10 (Saccharomyces cerevisiae, UniProt P43586 28-47); test: as above; details: tags: array-immobilized; label: radioactive
T6 chain: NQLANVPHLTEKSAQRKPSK

Loc1p array peptide C15 = Loc1p array peptide C15 (Saccharomyces cerevisiae, UniProt P43586 163-182); test: as above; details: tags: array-immobilized; label: radioactive
Loc1p array peptide A11 = biological target: T7, Loc1p array peptide A11 (Saccharomyces cerevisiae, UniProt P43586 31-50); test: as above; details: tags: array-immobilized; label: radioactive
T7 chain: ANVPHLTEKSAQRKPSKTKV

Loc1p array peptide B19 = biological target: T8, Loc1p array peptide B19 (Saccharomyces cerevisiae, UniProt P43586 115-134); test: as above; details: tags: array-immobilized; label: radioactive
T8 chain: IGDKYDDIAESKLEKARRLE

Loc1p array peptide B7 = Loc1p array peptide B7 (Saccharomyces cerevisiae, UniProt P43586 79-98); test: as above; details: tags: array-immobilized; label: radioactive
Loc1p array peptide A15 = Loc1p array peptide A15 (Saccharomyces cerevisiae, UniProt P43586 43-62); test: as above; details: tags: array-immobilized; label: radioactive
Loc1p array peptide B6 = Loc1p array peptide B6 (Saccharomyces cerevisiae, UniProt P43586 76-95); test: as above; details: tags: array-immobilized; label: radioactive
Loc1p array peptide B5 = Loc1p array peptide B5 (Saccharomyces cerevisiae, UniProt P43586 73-92); test: as above; details: tags: array-immobilized; label: radioactive
Loc1p array peptide A14 = Loc1p array peptide A14 (Saccharomyces cerevisiae, UniProt P43586 40-59); test: as above; details: tags: array-immobilized; label: radioactive
MBP-Loc1p [6] = biological target: T1, MBP-Loc1p; test: competition; vs labeled ASH1 E3; 10-500x; EMSA: 20 mM HEPES pH 7.8, 200 mM NaCl, 2 mM MgCl2, 2 mM DTT, 4% glycerol, 25 C, 5 nM RNA, 100 ug/ml tRNA (omitted in competition); NMR: 20 mM Na phosphate pH 7.
MBP-Loc1p [7] = biological target: T2, MBP-Loc1p; test: competition; vs labeled TAR-57; 10-500x; EMSA: 20 mM HEPES pH 7.8, 200 mM NaCl, 2 mM MgCl2, 2 mM DTT, 4% glycerol, 25 C, 5 nM RNA, 100 ug/ml tRNA (omitted in competition); NMR: 20 mM Na phosphate pH 7.4, 50 mM NaCl, 278 K; details: protein: recombinant; tags: MBP

**Q.** Does AAAAAAAAAAAAAAAAAAAAA (ssDNA) [Cy3-A(21) ssDNA] bind (MBP-Loc1p [1])?
**A.** binds

B1: HIV TAR-57 (structured_RNA)
RNA: GGUCUCUCUGGUUAGACCAGAUCUGAGCCUGGGAGCUCUCUGGCUAACUAGGGAACC
**Q.** Does B1 bind (MBP-Loc1p [2])?
**A.** binds

**Q.** Does B1 bind (Loc1p [3])?
**A.** binds

**Q.** Does CGAAGAUGAAAAUGAUCACGAGAGAGAUCCCGAACAAUUUUCAGAAUUUG (ssRNA) [EAR1 LE] bind (Loc1p [4])?
**A.** binds

**Q.** Does CGAAGAUGAAAAUGAUCACGAGAGAGAUCCCGAACAAUUUUCAGAAUUUG (ssRNA) [EAR1 LE] bind (MBP-Loc1p [5])?
**A.** binds

**Q.** Which Kd (Loc1p (3-15)) does the source give for UCUCUGGUUAGGAAACUAACUAGGGA (structured_RNA) [dsRNA tetraloop] here?
**A.** ~73.7 µM

B2: ASH1 E3 (short) (structured_RNA)
RNA: AUGGAUAACUGAAUCUCUUUCAACUAAUAAGAGACAUUAUCACGAAACAAU
**Q.** Does B2 bind (Loc1p array peptide B8)?
**A.** binds

**Q.** Does B2 bind (Loc1p array peptide A9)?
**A.** binds

**Q.** Does B2 bind (Loc1p array peptide A7)?
**A.** no binding

**Q.** Does B2 bind (Loc1p array peptide A10)?
**A.** binds

**Q.** Does B2 bind (Loc1p array peptide C15)?
**A.** binds

**Q.** Does B2 bind (Loc1p array peptide A11)?
**A.** binds

**Q.** Does B2 bind (Loc1p array peptide B19)?
**A.** no binding

**Q.** Does B2 bind (Loc1p array peptide B7)?
**A.** binds

**Q.** Does B2 bind (Loc1p array peptide A15)?
**A.** binds

**Q.** Does B2 bind (Loc1p array peptide B6)?
**A.** binds

**Q.** Does B2 bind (Loc1p array peptide B5)?
**A.** binds

**Q.** Does B2 bind (Loc1p array peptide A14)?
**A.** binds

B3: poly-A60 (ssRNA)
RNA: AAAAAAAAAAAAAAAAAAAAAAAAAAAAAAAAAAAAAAAAAAAAAAAAAAAAAAAAAAAA
**Q.** Does B3 bind (MBP-Loc1p [6])?
**A.** binds

**Q.** Does B3 bind (Loc1p [4])?
**A.** binds

**Q.** Does B3 bind (MBP-Loc1p [7])?
**A.** binds
